Results as given in patent US20210393685A1 (TRUSTEES OF COLUMBIA UNIVERSITY IN THE CITY OF NEW YORK, published 2021).
One block for each binder: values may come before it.

Molecular target: T1, CD33 on cord blood CD34+ cells (human, UniProt P20138 18-364)
T1 construct: whole, on cells; also called CD33 antigen
Test: flow cytometry on CD33-expressing cord blood CD34+ cells, detected with FITC anti-Myc antibody
Method: The binding of the anti-CD33-ULBP1 chimera with CD33 antigen-expressing cord blood CD34+ cells or NKG2D-expressing primary NK cells was tested using flow cytometry. Briefly, primary NK cells were purified from peripheral blood of donors. CD34+ cells were purified from cord blood of donors. Purified cells were incubated with the elute from the mock, chimera 1 or chimera 2 proteins purified from the cell supernatant. The cells were also incubated with FITC-conjugated anti-Myc antibody and analyzed using a flow cytometer.

T1 sequence (P20138 18-364): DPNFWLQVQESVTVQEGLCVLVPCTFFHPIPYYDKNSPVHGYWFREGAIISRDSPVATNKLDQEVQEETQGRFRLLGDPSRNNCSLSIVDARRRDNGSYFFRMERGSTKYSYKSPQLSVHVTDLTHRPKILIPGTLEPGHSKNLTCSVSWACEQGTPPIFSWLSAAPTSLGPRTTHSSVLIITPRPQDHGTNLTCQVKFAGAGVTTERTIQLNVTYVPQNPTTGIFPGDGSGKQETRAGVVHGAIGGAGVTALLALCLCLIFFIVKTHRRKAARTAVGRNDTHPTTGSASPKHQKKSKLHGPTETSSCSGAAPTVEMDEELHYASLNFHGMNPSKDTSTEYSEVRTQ

- binding result: binds
B1: anti-CD33-ULBP1 chimera 2 (CD33-ULBP1-2, with proline) (other)
chain: EIVLTQSPGSLAVSPGERVTMSCKSSQSVFFSSSQKNYLAWYQQIPGQSPRLLIYWASTRESGVPDRFTGSGSGTDFTLTISSVQPEDLAIYYCHQYLSSRTFGQGTKLEIKRGSTSGSGKPGSGEGSTKGQVQLQQPGAEVVKPGASVKMSCKASGYTFTSYYIHWIKQTPGQGLEWVGVIYPGNDDISYNQKFQGKATLTADKSSTTAYMQLSSLTSEDSAVYYCAREVRLRYFDVWGQGTTVTVSSSSSAGGGGSGGGGSGGGGSPWVDTHCLCYDFIITPKSRPEPQWCEVQGLVDERPFLHYDCVNHKAKAFASLGKKVNVTKTWEEQTETLRDVVDFLKGQLLDIQVENLIPIEPLTLQARMSCEHEAHGHGRGSWQFLFNGQKFLLFDSNNRKWTALHPGAKKMTEKWEKNRDVTMFFQKISLGDCKMWLEEFLMYWEQMLDPTKPPSLAPGEQKLISEEDLHHHHHH
notes: also called αCD33-ULBP1 chimera 2

- binding result: binds
B2: anti-CD33-ULBP1 chimera 1 (CD33-ULBP1-1) (other)
chain: EIVLTQSPGSLAVSPGERVTMSCKSSQSVFFSSSQKNYLAWYQQIPGQSPRLLIYWASTRESGVPDRFTGSGSGTDFTLTISSVQPEDLAIYYCHQYLSSRTFGQGTKLEIKRGSTSGSGKPGSGEGSTKGQVQLQQPGAEVVKPGASVKMSCKASGYTFTSYYIHWIKQTPGQGLEWVGVIYPGNDDISYNQKFQGKATLTADKSSTTAYMQLSSLTSEDSAVYYCAREVRLRYFDVWGQGTTVTVSSSSSAGGGGSGGGGSGGGGSWVDTHCLCYDFIITPKSRPEPQWCEVQGLVDERPFLHYDCVNHKAKAFASLGKKVNVTKTWEEQTETLRDVVDFLKGQLLDIQVENLIPIEPLTLQARMSCEHEAHGHGRGSWQFLFNGQKFLLFDSNNRKWTALHPGAKKMTEKWEKNRDVTMFFQKISLGDCKMWLEEFLMYWEQMLDPTKPPSLAPGEQKLISEEDLHHHHHH
notes: also called αCD33-ULBP1 chimera 1
